What all share (conditions): remark: other sources report otherwise
Experiment [1] concerns the target recombinant soluble homotrimeric HA, A/Netherlands/219/03 H7N7 (Influenza A virus A/Netherlands/219/03(H7N7)). The experiment can be described thus: microarray, transfection SN IgG, trimeric HA.
Experiment [2] addresses recombinant soluble homotrimeric HA, A/swine/Ontario/01911-2/99 H4N6 (Influenza A virus A/Swine/Ontario/01911-2/99 (H4N6)). The experiment can be described thus: microarray, transfection SN IgG, trimeric HA.
The target of experiment [3] is T1, recombinant soluble homotrimeric HA of A/duck/Yangzhou/02/05 (H8N4) (Influenza A virus A/duck/Yangzhou/02/2005(H8N4)). The experiment can be described thus: trimeric HA microarray, transfection supernatant set 2.
In experiment [4] the target is T2, recombinant soluble homotrimeric HA of A/Anhui/1/05 (H5N1) (Influenza A virus A/Anhui/1/2005(H5N1)). The experiment in a line: trimeric HA microarray, transfection supernatant set 3.
For experiment [5], the target named is T3, recombinant soluble homotrimeric HA of A/California/4/09 (H1N1) (Influenza A virus A/California/04/2009(H1N1)). The description is as above.
The target in experiment [6] is T4, recombinant soluble homotrimeric HA of A/Egypt/3300-NAMRU3/08 (H5N1) (Influenza A virus A/Egypt/3300-NAMRU3/2008(H5N1)). The description is as above.
Experiment [7] has as its target T5, recombinant soluble homotrimeric HA of A/Indonesia/5/05 (H5N1) (Influenza A virus A/Indonesia/5/2005(H5N1)). Described as above.
The target of experiment [8] is T6, recombinant soluble homotrimeric HA of A/Japan/305/57 (H2N2) (Influenza A virus A/Japan/305/1957(H2N2)). The experiment is described as above.
The target of experiment [9] is T7, recombinant soluble homotrimeric HA of A/Netherlands/219/03 (H7N7) (Influenza A virus A/Netherlands/219/03(H7N7)). The description is as above.
The target of experiment [10] is T8, recombinant soluble homotrimeric HA of A/Solomon Islands/3/06 (H1N1) (Influenza A virus A/Solomon Islands/3/2006(H1N1)). The description is as above.
Experiment [11] has as its target T9, recombinant soluble homotrimeric HA of A/South Carolina/1/18 (H1N1) (Influenza A virus A/South Carolina/1/18 (H1N1)). Described as above.
In experiment [12] the target is T10, recombinant soluble homotrimeric HA of A/chicken/Vietnam/NCVD-016/08 (H5N1) (Influenza A virus A/chicken/Vietnam/NCVD-016/2008(H5N1)). The description is as above.
Experiment [13] concerns the target T2, recombinant soluble homotrimeric HA of …. The experiment in a line: trimeric HA microarray, transfection supernatant set 5.
Experiment [14] concerns the target T3, recombinant soluble homotrimeric HA of …. Described as above.
Experiment [15] addresses T4, recombinant soluble homotrimeric HA of …. Described as above.
In experiment [16] the target is recombinant soluble homotrimeric HA of A/Hong Kong/156/97 (H5N1) (Influenza A virus A/Hong Kong/156/97 (H5N1)). The experiment is described as above.
Experiment [17] concerns the target T5, recombinant soluble homotrimeric HA of …. The experiment is described as above.
Experiment [18] deals with T6, recombinant soluble homotrimeric HA of …. The description is as above.
Experiment [19] concerns the target T7, recombinant soluble homotrimeric HA of …. Described as above.
For experiment [20], the target named is T8, recombinant soluble homotrimeric HA of …. Described as above.
Experiment [21] addresses T9, recombinant soluble homotrimeric HA of …. The description is as above.
Experiment [22] addresses recombinant soluble homotrimeric HA of A/Vietnam/1203/04 (H5N1) (Influenza A virus A/VietNam/1203/2004(H5N1)). The experiment is described as above.
The target in experiment [23] is recombinant soluble homotrimeric HA of A/Wisconsin/67/05 (H3N2) (Influenza A virus A/Wisconsin/67/2005(H3N2)). The experiment is described as above.
The target of experiment [24] is T10, recombinant soluble homotrimeric HA of …. The experiment is described as above.
Experiment [25] concerns the target T1, recombinant soluble homotrimeric HA of …. Described as above.
The target of experiment [26] is recombinant soluble homotrimeric HA of A/northern shoveler/California/HKWF115/07 (H6) (Influenza A virus A/northern shoveler/California/HKWF115/2007(H6N1)). Described as above.
For experiment [27], the target named is recombinant soluble homotrimeric HA of A/swine/Ontario/01911-2/99 (H4N6) (Influenza A virus A/Swine/Ontario/01911-2/99 (H4N6)). The description is as above.

B1: TCN-504 (3251_K17) (antibody, V domains shown)
VH: QVQLQESGPGLVKPSETLSLTCAVSGVSISNIDFYWGWIRQPPGKGLEWIGNIYYTGITFYNPSLSSRVAISIDTSKNQFSLTLTSVTAADTAMYYCARHYGDSEAINDAFDIWGQGTMLTVSS
VL: EIVMTQSPATLSVSPGERATLSCRASQSVGNSLAWYQQRPGQAPRLLIYGASTRATGIPPRFSGSGSGTEFTLTISSLQTEDFAVYYCQQYINWRPLSFGGGTKVEIK
As for B1, the Trimeric HA Binding: RLU was found to be 30600 RLU in [1]; 54800 RLU in experiment [2]; 17800 RLU in experiment [3]; 30000 RLU in [4]; 18600 RLU in experiment [5]; 18000 RLU in [6]. The Trimeric HA Binding: RLU in experiment [7] was 18600 RLU; in experiment [8], 36000 RLU; in experiment [9], 19600 RLU; in [10], 32700 RLU; in [11] it was 27600 RLU; in [12], 10300 RLU.

B2: TCN-540 (5060_F05) (antibody, V domains shown)
VH: QVQLVQSGGGVVQPGRSLRLSCAASGFTFSSYAMHWVRQAPGKGLEWVAIISYDGNDQYYTDSVKGRFTISRDSSKVYLQMHRLRPEDTAVYYCAKEFETSGYFHGSFDYWGQGILVTVSS
VL: QSALTQPASVSGSPGQSITISCTGTSSDVGGYNYVSWYQQHPGKAPKLLIYEVTNWPSGVSNRFSGSKSGNTASLTISGLQAEDEADYYCSSYAGSSTWVFGGGTRVTVL
B2: the Trimeric HA Binding: RLU amounted to 2190 RLU in [13]; 984 RLU in experiment [14]; 15600 RLU in experiment [15]; 1550 RLU in experiment [16]; 2570 RLU in experiment [17]; 47900 RLU in experiment [18]. The Trimeric HA Binding: RLU is 4390 RLU in experiment [19]; 1180 RLU in [20]; 1360 RLU in experiment [21]; 42500 RLU in [22]; 53000 RLU in [23]; 1510 RLU in experiment [24]. Moreover, the Trimeric HA Binding: RLU came out at 6080 RLU in experiment [25] and 2460 RLU in experiment [26].

B3: TCN-530 (5248_H10a) (antibody, V domains shown)
VH: QVQLVQSGAEVRKPGSSVKVSCKASGGPFMSYAIGWVRQAPGQGLEWMGGINPVFGRPHYAQKFQGRVTIATDDSTKTSYMELSSLTSEDTGMYYCASRYSRSSPGTFESWGQGTLVTVSS
VL: EIVMTQFPATLSVSPGERVTLSCRASQSVSNNLAWYQQKPGQPPRLLIYDASTRATGVPAKFSGTGSGTEFTLSISSLQSEDFAVYYCQQYHNWPPSYSFGLGTKLEIK
On to B3, for which the Trimeric HA Binding: RLU in experiment [4] stood at 97 RLU; in [5], 21200 RLU; in experiment [6] it was 25500 RLU; in [7] it was 25500 RLU; in experiment [8] it was 5170 RLU; in experiment [9], 118 RLU. Moreover, the Trimeric HA Binding: RLU in [10] is 13800 RLU; in [11], 17200 RLU; in experiment [12], 18000 RLU.

B4: TCN-523 (5248_A17) (antibody, V domains shown)
VH: QVQLVQSGAEVKKPGSSVKVSCKASGGSFSNYAFSWVRQAPGQGLEWMGGTIPLLGTTNYAQKFQGRVTISADQFTSTAYMELGSLRSEDTAVYYCTRRKMTTAFDSWGQGTLVTVSS
VL: QPVLTQPPSASASLGASVTLTCTLSSAYSNYKVDWYQQRPGKGPRFVMRVGTGGIVGSKGDGIPDRFSVLGSGLNRYLTIKNIQEEDESDYHCGADHGSGSNFVSPYVFGGGTKLTVL
For B4, the Trimeric HA Binding: RLU in [4] is 546 RLU; in experiment [5] it was 19400 RLU; in experiment [6] it was 29100 RLU; in experiment [7] it was 22000 RLU; in experiment [8], 4550 RLU; in experiment [9] it was 3140 RLU. Also, the results for the Trimeric HA Binding: RLU in experiment [10], in [11] and in [12] were 11000 RLU, 23700 RLU and 18900 RLU, respectively.

B5: TCN-543 (5081_G23) (antibody, V domains shown)
VH: QVHLVQSGAEVRKPGDSVKVSCKTSGYTFSTYPVAWVRQVPGQGLEWMGWISTYNGNTNFAQNFQGRVTLTTDTTTNTAYMEVRSLKFDDTAVYYCARVEGSYRDFWNNQNRFDPWGQGTLVTVSS
VL: SYVLTQPPSVSVAPGQTARISCGGSNIGGKSVHWYQQKPGQAPVLVVYDDSGRPSGIPERFSGSNSGDTATLTISRVEAGDEADYFCQVWDNFGGVFGTGTKVTVL
Turning to B5, the Trimeric HA Binding: RLU came to 2630 RLU in experiment [13]; 2340 RLU in experiment [14]; 17600 RLU in experiment [15]; 1430 RLU in experiment [16]; 1830 RLU in experiment [17]; 2780 RLU in [18]. Also, the Trimeric HA Binding: RLU in experiment [19] came out at 12900 RLU; in [20] it was 43500 RLU; in experiment [21], 28300 RLU; in experiment [22] it was 33100 RLU; in [23], 37000 RLU; in [24], 5880 RLU. Further, the Trimeric HA Binding: RLU in [25] was 13100 RLU; in experiment [26] it was 2510 RLU; in experiment [27], 2870 RLU.

Values taken from patent US20150086555A1.
